IntAct's records for PubMed 10220404

B1: Protein enabled (Drosophila melanogaster (Fruit fly)), Q8T4F7 (parent)
chain: MAMKKLYAKTSFTSKKPSSAANSTPILAYHQQQHQQPGNGICEFQVVAPGHSGELMIRRSQSMHHKMSPPVGGLGSKSEYYSIEELQELDLLDYRHPMYHHYQQQELRQRYHEHEQLVLQLPKATSPKAGPIYEAPQRSQQQQDQMLYVPTAAQRDSSSSAAATSIASSSTLTSSPSPSSSSSLIFSTLRKCVSPSNPSVNPNQPSKTQPSKLGCSMSFSIRTTTATAATAAAANAATATLSTQQQQQQAQQQHKQHLYSNIHHYLIRQQQQKQHYTLQRRHNSVKDKFIGGITTIFAEQSIIGARASVMVYDDNQKKWVPSGSSSGLSKVQIYHHQQNNTFRVVGRKLQDHEVVINCSILKGLKYNQATATFHQWRDSKFVYGLNFSSQNDAENFARAMMHALEVLSGRVANNPGGPPTNGNGYEEDMGYRTMTSEDAAILRQNNSIGGHVTPSAQTPTSQTNQNNIPQSPPTPQGHHRTSSAPPAPQPQQQQQQQQAQQMGQPGSHYGPTGNGPTSNGLPQQVNSQIPPAPQQQPQQQQFQQQQQQQQYQQMVQAGYAPSQQYQQPHYVLSNSNPNLTVHQYPTQQAQQQPPQAPQPPLQNGGMYMVGHGHLPSSASANSVVYASQQQMLPQAHPQAPQAPTMPGPGYGGPPVPPPQQQAENPYGQVPMPPPMNPSQQQQPGQVPLNRMSSQGGPGGPPAPAPPPPPPSFGGAAGGGPPPPAPPQMFNGAPPPPAMGGGPPPAPPAPPAMGGGPPPAPGGPGAPPPPPPPPGLGGAPKKEDPQADLMGSLASQLQQIKLKKNKVTTSAPENSGSSTSSGGSGNYGTIGRSSNGMASMMDEMAKTLARRRAQAEKKDPDPEAEVKKRPWEKSNTLPHKLSGGAGSGSAGSGHEGANGNSGGAGSNTTNSGGESPRPMRKRFGSASEETILKVNGDGLSLALSNGDLDTLKAEIVREMRLEIQKVKNEIIDAIKSEFNRR

What was measured:
abl_drome Abl, P00522 = variants of: B1; conditions: with abl_drome Abl
src_mouse Src, P05480 = variants of: B1; conditions: with src_mouse Src

Chain of abl_drome Abl, P00522 (P00522 whole entry): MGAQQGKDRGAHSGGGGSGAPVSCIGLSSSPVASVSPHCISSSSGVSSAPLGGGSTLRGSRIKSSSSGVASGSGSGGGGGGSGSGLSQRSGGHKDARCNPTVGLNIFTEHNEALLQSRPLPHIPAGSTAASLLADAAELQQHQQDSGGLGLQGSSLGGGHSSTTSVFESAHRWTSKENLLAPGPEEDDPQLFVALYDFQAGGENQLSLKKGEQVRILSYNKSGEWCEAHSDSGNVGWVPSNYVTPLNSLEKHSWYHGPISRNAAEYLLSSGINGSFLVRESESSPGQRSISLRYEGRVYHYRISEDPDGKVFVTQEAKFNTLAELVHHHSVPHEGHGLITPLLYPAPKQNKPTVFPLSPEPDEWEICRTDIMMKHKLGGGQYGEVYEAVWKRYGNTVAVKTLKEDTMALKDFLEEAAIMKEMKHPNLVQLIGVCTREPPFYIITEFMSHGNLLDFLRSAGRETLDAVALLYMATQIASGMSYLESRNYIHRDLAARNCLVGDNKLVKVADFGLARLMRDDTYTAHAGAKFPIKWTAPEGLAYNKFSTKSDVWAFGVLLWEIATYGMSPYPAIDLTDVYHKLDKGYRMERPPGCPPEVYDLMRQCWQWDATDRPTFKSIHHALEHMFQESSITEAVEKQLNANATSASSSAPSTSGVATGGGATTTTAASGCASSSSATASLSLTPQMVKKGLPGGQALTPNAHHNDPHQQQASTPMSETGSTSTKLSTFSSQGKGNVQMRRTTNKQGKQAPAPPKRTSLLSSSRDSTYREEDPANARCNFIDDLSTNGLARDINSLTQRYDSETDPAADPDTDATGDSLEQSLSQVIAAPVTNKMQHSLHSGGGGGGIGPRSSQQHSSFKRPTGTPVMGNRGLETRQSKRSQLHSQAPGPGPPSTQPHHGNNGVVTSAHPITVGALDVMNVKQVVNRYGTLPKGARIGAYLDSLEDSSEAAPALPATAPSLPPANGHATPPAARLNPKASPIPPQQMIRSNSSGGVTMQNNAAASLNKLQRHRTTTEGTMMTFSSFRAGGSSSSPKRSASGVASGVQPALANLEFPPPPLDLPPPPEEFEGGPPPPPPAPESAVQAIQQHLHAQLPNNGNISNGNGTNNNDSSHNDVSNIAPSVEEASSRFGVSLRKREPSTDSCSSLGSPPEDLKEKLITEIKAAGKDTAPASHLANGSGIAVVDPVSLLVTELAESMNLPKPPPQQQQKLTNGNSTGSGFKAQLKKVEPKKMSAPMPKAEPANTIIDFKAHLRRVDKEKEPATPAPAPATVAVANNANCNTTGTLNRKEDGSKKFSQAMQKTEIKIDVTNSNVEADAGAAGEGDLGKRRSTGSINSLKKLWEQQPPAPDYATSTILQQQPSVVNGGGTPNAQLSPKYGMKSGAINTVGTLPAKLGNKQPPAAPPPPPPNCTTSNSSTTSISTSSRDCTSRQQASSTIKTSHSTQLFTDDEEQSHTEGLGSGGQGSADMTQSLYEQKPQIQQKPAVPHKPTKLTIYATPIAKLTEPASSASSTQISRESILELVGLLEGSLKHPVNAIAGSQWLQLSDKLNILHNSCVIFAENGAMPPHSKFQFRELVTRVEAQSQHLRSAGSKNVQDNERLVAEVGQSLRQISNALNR

Variant	effect of a mutation on the interaction (abl_drome Abl, P00522)	effect of a mutation on the interaction (src_mouse Src, P05480)
P701A;P707A;P708A;P709A	decreasing interaction	decreasing interaction
P763A;P770A;P771A;P772A	decreasing interaction	decreasing interaction
